Experimental data reported in patent publication US20230192860A1 (Bristol-Myers Squibb, published 2023).
Substitutions are numbered along the chain they refer to. Blank lines part the entries; values can stand above or below the binder they belong to.

What was measured:
hVISTA-ECD 6-His tag [1] = biological target: T1, hVISTA-ECD 6-His tag (human, UniProt Q9H7M9 33-193); test: SPR; kd at pH 6.45 over kd at pH 6.0 (head prints 7.4)
T1 construct: also called monovalent hVISTA-ECD; human VISTA
Procedure: (§1) Further binding kinetic experiments were performed at various pHs on VISTA antibodies described herein by SPR as generally described in Example 9 above. Antibodies were normalized to 50 nM concentration in PBST pH 7.4 and captured on a Protein A CM5 chip (ID 4931) by injecting for 45 seconds at a 5 µL/min flow rate. An 8-point human VISTA titration ([…]) was prepared in PBST at pH 7.4, 6.9, 6.45, and 6.0. Titrations were injected over the captured antibodies for 180 seconds at 30 µL/min. Sensorgrams were fit to a 1:1 binding model in T200 evaluation software and the kinetic constants were reported.
(§2) Each table reports the data at one of the four tested pHs (7.4, 6.9, 6.45, and 6.0, respectively). The 8-point hVISTA titration used in these assays was chosen to provide increased confidence in kinetic values reported at neutral pH conditions. A relatively stringent cutoff for non-binding was applied in this assay. Certain progeny of P1-061029 antibody (P1-068757, ‘759, ‘765, ‘771, and ‘775) show no binding to hVISTA at micromolar concentrations at pH 7.4, while ‘761 and ‘767 show no binding to hVISTA at 100 nM at pH 7.4 but do show binding to hVISTA at micromolar concentrations.

hVISTA-ECD 6-His tag [2] = biological target: T1, hVISTA-ECD 6-His tag; test: SPR; KD at pH 6.9 over KD at pH 6.0 (head prints 7.4)
Procedure: as §1, §2

hVISTA-ECD 6-His tag [3] = biological target: T1, hVISTA-ECD 6-His tag; test: SPR; KD at pH 6.45 over KD at pH 6.0 (head prints 7.4)
hVISTA-ECD 6-His tag [4] = biological target: T1, hVISTA-ECD 6-His tag; test: SPR, Ab on Protein A, hVISTA analyte, pH 6.9
Procedure: as §1, §2

hVISTA-ECD 6-His tag [5] = biological target: T1, hVISTA-ECD 6-His tag; test: SPR; kd at pH 6.9 over kd at pH 6.0 (head prints 7.4)
Procedure: as §1, §2

hVISTA-ECD 6-His tag [6] = biological target: T1, hVISTA-ECD 6-His tag; test: SPR, Ab on Protein A, hVISTA analyte, pH 6.0
hVISTA-ECD 6-His tag [7] = biological target: T1, hVISTA-ECD 6-His tag; test: SPR, Ab on Protein A, hVISTA analyte, pH 6.45

T1 sequence (Q9H7M9 other isoform, or with tags, fused parts or gaps limits assumed): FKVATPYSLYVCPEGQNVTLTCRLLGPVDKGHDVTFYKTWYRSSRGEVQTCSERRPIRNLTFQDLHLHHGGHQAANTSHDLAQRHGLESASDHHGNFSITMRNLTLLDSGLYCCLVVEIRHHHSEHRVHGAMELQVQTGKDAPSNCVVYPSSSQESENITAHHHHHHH

B1: P1-061029 (antibody, human IgG1, kappa)
heavy: EVQLVESGGGLVQPGKSLRLSCAASGFTLDDYAMHWVRQAPGKGLEWVSGINWNSANIGYADSVKGRFTISRDNAKNSLYLQMNSLRTEDTALYYCAKVPGYSGGWIDAFDVWGQGTMVTVSSASTKGPSVFPLAPSSKSTSGGTAALGCLVKDYFPEPVTVSWNSGALTSGVHTFPAVLQSSGLYSLSSVVTVPSSSLGTQTYICNVNHKPSNTKVDKRVEPKSCDKTHTCPPCPAPEAEGAPSVFLFPPKPKDTLMISRTPEVTCVVVDVSHEDPEVKFNWYVDGVEVHNAKTKPREEQYNSTYRVVSVLTVLHQDWLNGKEYKCKVSNKALPAPIEKTISKAKGQPREPQVYTLPPSREEMTKNQVSLTCLVKGFYPSDIAVEWESNGQPENNYKTTPPVLDSDGSFFLYSKLTVDKSRWQQGNVFSCSVMHEALHNHYTQKSLSLSPG
light: not shown
notes: also called P1-061029-18; P1-061029.IgG1.3
7.4 kd/ 6.0 kd (hVISTA-ECD 6-His tag [1]): 0.9
7.4 KD/ 6.0 KD (hVISTA-ECD 6-His tag [2]): 2.5
7.4 KD/ 6.0 KD (hVISTA-ECD 6-His tag [3]): 1.8
Kd (hVISTA-ECD 6-His tag [4]): 7.13 nM
koff (hVISTA-ECD 6-His tag [4]): 0.00416 s⁻¹
kon (hVISTA-ECD 6-His tag [4]): 583000 M⁻¹ s⁻¹
7.4 kd/ 6.0 kd (hVISTA-ECD 6-His tag [5]): 0.8
Kd (hVISTA-ECD 6-His tag [6]): 2.91 nM
koff (hVISTA-ECD 6-His tag [6]): 0.00527 s⁻¹
kon (hVISTA-ECD 6-His tag [6]): 1.81e+06 M⁻¹ s⁻¹
Kd (hVISTA-ECD 6-His tag [7]): 5.13 nM
koff (hVISTA-ECD 6-His tag [7]): 0.0045 s⁻¹
kon (hVISTA-ECD 6-His tag [7]): 876000 M⁻¹ s⁻¹

B3: P1-070872 (P1-068761_H100G) (antibody, human IgG1, kappa, V domains shown)
VH: EVQLVESGGGLVQPGKSLRLSCAASGFTLEDEAMHWVRQAPGKGLEWVSGINWNSEEIGYADSVKGRFTISRDNAKNSLYLQMNSLRTEDTALYYCAKVPGYSGGWIDAEDVWGQGTMVTVSS
VL: not shown
notes: also called P1-070872-4
7.4 kd/ 6.0 kd (hVISTA-ECD 6-His tag [1]): 4.5
7.4 KD/ 6.0 KD (hVISTA-ECD 6-His tag [2]): 1820
7.4 KD/ 6.0 KD (hVISTA-ECD 6-His tag [3]): 8.3
Kd (hVISTA-ECD 6-His tag [4]): 15000 nM
koff (hVISTA-ECD 6-His tag [4]): 0.028 s⁻¹
kon (hVISTA-ECD 6-His tag [4]): 1900 M⁻¹ s⁻¹
7.4 kd/ 6.0 kd (hVISTA-ECD 6-His tag [5]): 5.1
Kd (hVISTA-ECD 6-His tag [6]): 8.2 nM
koff (hVISTA-ECD 6-His tag [6]): 0.0056 s⁻¹
kon (hVISTA-ECD 6-His tag [6]): 680000 M⁻¹ s⁻¹
Kd (hVISTA-ECD 6-His tag [7]): 68 nM
koff (hVISTA-ECD 6-His tag [7]): 0.025 s⁻¹
kon (hVISTA-ECD 6-His tag [7]): 360000 M⁻¹ s⁻¹

B4: P1-070908 (P1-068767_E55A) (antibody, human IgG1, kappa, V domains shown)
VH: B3 VH with E32Y, N52D, E56A, E57N, V112D
VL: not shown
notes: also called P1-070908-6
7.4 kd/ 6.0 kd (hVISTA-ECD 6-His tag [1]): 2.2
7.4 KD/ 6.0 KD (hVISTA-ECD 6-His tag [2]): 23
7.4 KD/ 6.0 KD (hVISTA-ECD 6-His tag [3]): 5.2
Kd (hVISTA-ECD 6-His tag [4]): 240 nM
koff (hVISTA-ECD 6-His tag [4]): 0.012 s⁻¹
kon (hVISTA-ECD 6-His tag [4]): 51000 M⁻¹ s⁻¹
7.4 kd/ 6.0 kd (hVISTA-ECD 6-His tag [5]): 4.4
Kd (hVISTA-ECD 6-His tag [6]): 10 nM
koff (hVISTA-ECD 6-His tag [6]): 0.0028 s⁻¹
kon (hVISTA-ECD 6-His tag [6]): 270000 M⁻¹ s⁻¹
Kd (hVISTA-ECD 6-His tag [7]): 54 nM
koff (hVISTA-ECD 6-His tag [7]): 0.006 s⁻¹
kon (hVISTA-ECD 6-His tag [7]): 110000 M⁻¹ s⁻¹

More lines, in order of falling Kd (hVISTA-ECD 6-His tag [4]), values ahead:

7.4 kd/ 6.0 kd (hVISTA-ECD 6-His tag [1]): 2
7.4 KD/ 6.0 KD (hVISTA-ECD 6-His tag [2]): 301
7.4 KD/ 6.0 KD (hVISTA-ECD 6-His tag [3]): 4.9
Kd (hVISTA-ECD 6-His tag [4]): 9800 nM
koff (hVISTA-ECD 6-His tag [4]): 0.028 s⁻¹
kon (hVISTA-ECD 6-His tag [4]): 2900 M⁻¹ s⁻¹
7.4 kd/ 6.0 kd (hVISTA-ECD 6-His tag [5]): 4.5
Kd (hVISTA-ECD 6-His tag [6]): 33 nM
koff (hVISTA-ECD 6-His tag [6]): 0.0063 s⁻¹
kon (hVISTA-ECD 6-His tag [6]): 190000 M⁻¹ s⁻¹
Kd (hVISTA-ECD 6-His tag [7]): 160 nM
koff (hVISTA-ECD 6-His tag [7]): 0.012 s⁻¹
kon (hVISTA-ECD 6-His tag [7]): 78000 M⁻¹ s⁻¹
B6: P1-070878 (P1-068761_E55A_E56N) (antibody, human IgG1, kappa, V domains shown)
VH: B3 VH with E56A, E57N, G104H
VL: not shown
notes: also called P1-070878-3

7.4 kd/ 6.0 kd (hVISTA-ECD 6-His tag [1]): 3.7
7.4 KD/ 6.0 KD (hVISTA-ECD 6-His tag [2]): 1240
7.4 KD/ 6.0 KD (hVISTA-ECD 6-His tag [3]): 6.7
Kd (hVISTA-ECD 6-His tag [4]): 6700 nM
koff (hVISTA-ECD 6-His tag [4]): 0.015 s⁻¹
kon (hVISTA-ECD 6-His tag [4]): 2300 M⁻¹ s⁻¹
7.4 kd/ 6.0 kd (hVISTA-ECD 6-His tag [5]): 6.5
Kd (hVISTA-ECD 6-His tag [6]): 5.4 nM
koff (hVISTA-ECD 6-His tag [6]): 0.0023 s⁻¹
kon (hVISTA-ECD 6-His tag [6]): 430000 M⁻¹ s⁻¹
Kd (hVISTA-ECD 6-His tag [7]): 36 nM
koff (hVISTA-ECD 6-His tag [7]): 0.0087 s⁻¹
kon (hVISTA-ECD 6-His tag [7]): 240000 M⁻¹ s⁻¹
B5: P1-070868 (P1-068761_E55A) (antibody, human IgG1, kappa, V domains shown)
VH: B3 VH with E56A, G104H
VL: not shown
notes: also called P1-070868-6

7.4 kd/ 6.0 kd (hVISTA-ECD 6-His tag [1]): 2.3
7.4 KD/ 6.0 KD (hVISTA-ECD 6-His tag [2]): 14.9
7.4 KD/ 6.0 KD (hVISTA-ECD 6-His tag [3]): 4.1
Kd (hVISTA-ECD 6-His tag [4]): 250 nM
koff (hVISTA-ECD 6-His tag [4]): 0.028 s⁻¹
kon (hVISTA-ECD 6-His tag [4]): 110000 M⁻¹ s⁻¹
7.4 kd/ 6.0 kd (hVISTA-ECD 6-His tag [5]): 7.2
Kd (hVISTA-ECD 6-His tag [6]): 17 nM
koff (hVISTA-ECD 6-His tag [6]): 0.0038 s⁻¹
kon (hVISTA-ECD 6-His tag [6]): 230000 M⁻¹ s⁻¹
Kd (hVISTA-ECD 6-His tag [7]): 68 nM
koff (hVISTA-ECD 6-His tag [7]): 0.0086 s⁻¹
kon (hVISTA-ECD 6-His tag [7]): 130000 M⁻¹ s⁻¹
B7: P1-070904 (P1-068767_E30D) (antibody, human IgG1, kappa, V domains shown)
VH: B3 VH with E30D, E32Y, N52D, E57N, V112D
VL: not shown
notes: also called P1-070904-3

7.4 kd/ 6.0 kd (hVISTA-ECD 6-His tag [1]): 1.5
7.4 KD/ 6.0 KD (hVISTA-ECD 6-His tag [2]): 52.4
7.4 KD/ 6.0 KD (hVISTA-ECD 6-His tag [3]): 6
Kd (hVISTA-ECD 6-His tag [4]): 142 nM
koff (hVISTA-ECD 6-His tag [4]): 0.00832 s⁻¹
kon (hVISTA-ECD 6-His tag [4]): 58700 M⁻¹ s⁻¹
7.4 kd/ 6.0 kd (hVISTA-ECD 6-His tag [5]): 4.1
Kd (hVISTA-ECD 6-His tag [6]): 2.71 nM
koff (hVISTA-ECD 6-His tag [6]): 0.00202 s⁻¹
kon (hVISTA-ECD 6-His tag [6]): 745000 M⁻¹ s⁻¹
Kd (hVISTA-ECD 6-His tag [7]): 16.2 nM
koff (hVISTA-ECD 6-His tag [7]): 0.00309 s⁻¹
kon (hVISTA-ECD 6-His tag [7]): 190000 M⁻¹ s⁻¹
B2: P1-068761 (antibody, human IgG1, kappa)
heavy: B1 heavy with D30E, Y32E, A56E, N57E, G104H, F110E
light: not shown
notes: also called P1-068761-20
